Test results from PMC12382473, “Retinoid X receptor γ interacts with peroxisome proliferator-activated receptor-γ to promote browning during adipose tissue differentiation” (Adipocyte, 2025).

Biological target: T1, Flag-PPARγ, transfected in HEK293 cells (UniProt P37231 1-505)
T1 sequence (looked up): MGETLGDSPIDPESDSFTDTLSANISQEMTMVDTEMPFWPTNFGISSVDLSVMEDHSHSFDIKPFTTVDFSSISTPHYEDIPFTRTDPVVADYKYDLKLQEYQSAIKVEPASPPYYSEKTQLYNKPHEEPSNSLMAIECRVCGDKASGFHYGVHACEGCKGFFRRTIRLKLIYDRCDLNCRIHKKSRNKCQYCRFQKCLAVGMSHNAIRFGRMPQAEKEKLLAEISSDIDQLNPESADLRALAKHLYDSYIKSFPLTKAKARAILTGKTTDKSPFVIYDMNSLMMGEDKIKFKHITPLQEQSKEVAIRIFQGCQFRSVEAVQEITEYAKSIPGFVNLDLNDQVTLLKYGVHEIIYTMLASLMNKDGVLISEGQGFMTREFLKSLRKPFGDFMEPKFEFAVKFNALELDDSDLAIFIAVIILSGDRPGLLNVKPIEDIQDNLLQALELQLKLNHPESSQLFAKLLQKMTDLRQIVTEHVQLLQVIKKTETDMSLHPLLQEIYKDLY
Assay: cell-based or functional assay

B1: Myc-RXRγ (retinoid X receptor γ), transfected in HEK293 cells (natural protein, UniProt P48443 1-463, looked up)
chain: MYGNYSHFMKFPAGYGGSPGHTGSTSMSPSAALSTGKPMDSHPSYTDTPVSAPRTLSAVGTPLNALGSPYRVITSAMGPPSGALAAPPGINLVAPPSSQLNVVNSVSSSEDIKPLPGLPGIGNMNYPSTSPGSLVKHICAICGDRSSGKHYGVYSCEGCKGFFKRTIRKDLIYTCRDNKDCLIDKRQRNRCQYCRYQKCLVMGMKREAVQEERQRSRERAESEAECATSGHEDMPVERILEAELAVEPKTESYGDMNMENSTNDPVTNICHAADKQLFTLVEWAKRIPHFSDLTLEDQVILLRAGWNELLIASFSHRSVSVQDGILLATGLHVHRSSAHSAGVGSIFDRVLTELVSKMKDMQMDKSELGCLRAIVLFNPDAKGLSNPSEVETLREKVYATLEAYTKQKYPEQPGRFAKLLLRLPALRSIGLKCLEHLFFFKLIGDTPIDTFLMEMLETPLQIT
luciferase activity of a PPRE reporter in HEK293 cells, RXRγ co-expressed with PPARγ (PPARγ alone 1.6-fold; RXRγ alone no increase): 2.1 fold
luciferase activity of a UCP1 promoter reporter in HEK293 cells, RXRγ co-expressed with PPARγ (PPARγ alone 1.5-fold; RXRγ alone no increase): 3.4 fold
